Tests used:
[1] = target: T1, SacB (Bacillus subtilis levansucrase, LS) (Bacillus subtilis, UniProt P05655, D86A/E342A); test: X-ray crystal structure, […] Å, cocrystallization; type: binding; conditions: catalytically inactive mutant; pH 6.0, 18 °C; active site (OB1, six fructose units modelled as levanhexaose); second site OB2 about 20 Å away (levanhexaose in chain A, levanbiose in chain B)
T1 construct: sacB gene of strain 168 in pET22b, expressed in E. coli BL21(DE3); residues 32-471 modelled in crystal
T1 sequence (P05655 30-473 D86A/E342A): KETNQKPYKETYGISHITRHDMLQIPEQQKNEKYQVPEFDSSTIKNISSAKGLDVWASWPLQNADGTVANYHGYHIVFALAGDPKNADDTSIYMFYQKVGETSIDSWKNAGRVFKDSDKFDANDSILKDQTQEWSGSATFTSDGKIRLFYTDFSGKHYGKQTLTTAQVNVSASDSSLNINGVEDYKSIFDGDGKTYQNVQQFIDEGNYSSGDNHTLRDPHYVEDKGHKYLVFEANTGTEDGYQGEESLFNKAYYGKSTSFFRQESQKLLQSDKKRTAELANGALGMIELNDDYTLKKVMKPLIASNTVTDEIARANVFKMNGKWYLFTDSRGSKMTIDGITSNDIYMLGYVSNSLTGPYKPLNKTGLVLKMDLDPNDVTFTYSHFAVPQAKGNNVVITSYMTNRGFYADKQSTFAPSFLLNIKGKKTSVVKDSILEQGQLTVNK

[2] = substrate: OC[C@H]1O[C@@](CO)(O[C@H]2O[C@H](CO)[C@@H](O)[C@H](O)[C@H]2O)[C@@H](O)[C@@H]1O; test: initial rates, reducing sugar release by dinitrosalicylic acid; type: biochemical, Bacillus subtilis; conditions: 50 mM acetate pH 6.0, 0-300 mM sucrose, 1 mM CaCl2 in enzyme buffer
[3] = substrate: OC[C@H]1O[C@@](CO)(O[C@H]2O[C@H](CO)[C@@H](O)[C@H](O)[C@H]2O)[C@@H](O)[C@@H]1O; test: as above; type: biochemical, Bacillus subtilis; conditions: 50 mM acetate pH 6.0, 0-300 mM sucrose, 1 mM CaCl2 in enzyme buffer; remark: listed apart in the source
Description: initial rates, reducing sugar release by dinitrosalicylic acid on SacB (Bacillus subtilis levansucrase, LS) | were expressed and purified, and their kinetic parameters were determined (Fig. 4B)

| Molecule | Km [2] | Km [3] | kcat [3] | also measured |
| --- | --- | --- | --- | --- |
| OC[C@H]1O[C@@](CO)(OC[C@H]2O[C@@](CO)(OC[C@H]3O[C@@](CO)(OC[C@H]4O[C@@](CO)(OC[C@H]5O[C@@](CO)(OC[C@H]6O[C@@](CO)(OC[C@H]7O[C@@](CO)(O[C@H]8O[C@H](CO)[C@@H](O)[C@H](O)[C@H]8O)[C@@H](O)[C@@H]7O)[C@@H](O)[C@@H]6O)[C@@H](O)[C@@H]5O)[C@@H](O)[C@@H]4O)[C@@H](O)[C@@H]3O)[C@@H](O)[C@@H]2O)[C@@H](O)[C@@H]1O [6,6,6,6,6,6-kestooctaose] |  |  |  | X-ray crystal structure, 2.05 Å, cocrystallization [1]: inactive double mutant of SacB (D86A/E342A) cocrystallized in the presence of a levan-type FOS |
| SacB (Bacillus subtilis levansucrase, LS) (Bacillus subtilis subsp. subtilis str. 168) (protein, sacB gene of strain 168 in pET22b, expressed in E. coli BL21(DE3); residues 32-471 modelled in crystal) KETNQKPYKETYGISHITRHDMLQIPEQQKNEKYQVPEFDSSTIKNISSAKGLDVWDSWPLQNADGTVANYHGYHIVFALAGDPKNADDTSIYMFYQKVGETSIDSWKNAGRVFKDSDKFDANDSILKDQTQEWSGSATFTSDGKIRLFYTDFSGKHYGKQTLTTAQVNVSASDSSLNINGVEDYKSIFDGDGKTYQNVQQFIDEGNYSSGDNHTLRDPHYVEDKGHKYLVFEANTGTEDGYQGEESLFNKAYYGKSTSFFRQESQKLLQSDKKRTAELANGALGMIELNDDYTLKKVMKPLIASNTVTDEIERANVFKMNGKWYLFTDSRGSKMTIDGITSNDIYMLGYVSNSLTGPYKPLNKTGLVLKMDLDPNDVTFTYSHFAVPQAKGNNVVITSYMTNRGFYADKQSTFAPSFLLNIKGKKTSVVKDSILEQGQLTVNK | 9 mM |  |  | kcat [2]: 236.7 s⁻¹ |
| SacB (Bacillus subtilis levansucrase, LS) (Bacillus subtilis subsp. subtilis str. 168; F182A) (protein, sacB gene of strain 168 in pET22b, expressed in E. coli BL21(DE3); residues 32-471 modelled in crystal) KETNQKPYKETYGISHITRHDMLQIPEQQKNEKYQVPEFDSSTIKNISSAKGLDVWDSWPLQNADGTVANYHGYHIVFALAGDPKNADDTSIYMFYQKVGETSIDSWKNAGRVFKDSDKFDANDSILKDQTQEWSGSATFTSDGKIRLFYTDASGKHYGKQTLTTAQVNVSASDSSLNINGVEDYKSIFDGDGKTYQNVQQFIDEGNYSSGDNHTLRDPHYVEDKGHKYLVFEANTGTEDGYQGEESLFNKAYYGKSTSFFRQESQKLLQSDKKRTAELANGALGMIELNDDYTLKKVMKPLIASNTVTDEIERANVFKMNGKWYLFTDSRGSKMTIDGITSNDIYMLGYVSNSLTGPYKPLNKTGLVLKMDLDPNDVTFTYSHFAVPQAKGNNVVITSYMTNRGFYADKQSTFAPSFLLNIKGKKTSVVKDSILEQGQLTVNK | 14.5 mM |  |  |  |
| SacB (Bacillus subtilis levansucrase, LS) (Bacillus subtilis subsp. subtilis str. 168; N242A) (protein, sacB gene of strain 168 in pET22b, expressed in E. coli BL21(DE3); residues 32-471 modelled in crystal) KETNQKPYKETYGISHITRHDMLQIPEQQKNEKYQVPEFDSSTIKNISSAKGLDVWDSWPLQNADGTVANYHGYHIVFALAGDPKNADDTSIYMFYQKVGETSIDSWKNAGRVFKDSDKFDANDSILKDQTQEWSGSATFTSDGKIRLFYTDFSGKHYGKQTLTTAQVNVSASDSSLNINGVEDYKSIFDGDGKTYQNVQQFIDEGNYSSGDAHTLRDPHYVEDKGHKYLVFEANTGTEDGYQGEESLFNKAYYGKSTSFFRQESQKLLQSDKKRTAELANGALGMIELNDDYTLKKVMKPLIASNTVTDEIERANVFKMNGKWYLFTDSRGSKMTIDGITSNDIYMLGYVSNSLTGPYKPLNKTGLVLKMDLDPNDVTFTYSHFAVPQAKGNNVVITSYMTNRGFYADKQSTFAPSFLLNIKGKKTSVVKDSILEQGQLTVNK | 19.9 mM |  |  |  |
| SacB (Bacillus subtilis levansucrase, LS) (Bacillus subtilis subsp. subtilis str. 168; Y237A) (protein, sacB gene of strain 168 in pET22b, expressed in E. coli BL21(DE3); residues 32-471 modelled in crystal) KETNQKPYKETYGISHITRHDMLQIPEQQKNEKYQVPEFDSSTIKNISSAKGLDVWDSWPLQNADGTVANYHGYHIVFALAGDPKNADDTSIYMFYQKVGETSIDSWKNAGRVFKDSDKFDANDSILKDQTQEWSGSATFTSDGKIRLFYTDFSGKHYGKQTLTTAQVNVSASDSSLNINGVEDYKSIFDGDGKTYQNVQQFIDEGNASSGDNHTLRDPHYVEDKGHKYLVFEANTGTEDGYQGEESLFNKAYYGKSTSFFRQESQKLLQSDKKRTAELANGALGMIELNDDYTLKKVMKPLIASNTVTDEIERANVFKMNGKWYLFTDSRGSKMTIDGITSNDIYMLGYVSNSLTGPYKPLNKTGLVLKMDLDPNDVTFTYSHFAVPQAKGNNVVITSYMTNRGFYADKQSTFAPSFLLNIKGKKTSVVKDSILEQGQLTVNK | 10.6 (1.7) mM |  |  | kcat [2]: 256.3 (9.3) s^-1 |
| SacB (Bacillus subtilis levansucrase, LS) (Bacillus subtilis subsp. subtilis str. 168; K363A) (protein, sacB gene of strain 168 in pET22b, expressed in E. coli BL21(DE3); residues 32-471 modelled in crystal) KETNQKPYKETYGISHITRHDMLQIPEQQKNEKYQVPEFDSSTIKNISSAKGLDVWDSWPLQNADGTVANYHGYHIVFALAGDPKNADDTSIYMFYQKVGETSIDSWKNAGRVFKDSDKFDANDSILKDQTQEWSGSATFTSDGKIRLFYTDFSGKHYGKQTLTTAQVNVSASDSSLNINGVEDYKSIFDGDGKTYQNVQQFIDEGNYSSGDNHTLRDPHYVEDKGHKYLVFEANTGTEDGYQGEESLFNKAYYGKSTSFFRQESQKLLQSDKKRTAELANGALGMIELNDDYTLKKVMKPLIASNTVTDEIERANVFKMNGKWYLFTDSRGSAMTIDGITSNDIYMLGYVSNSLTGPYKPLNKTGLVLKMDLDPNDVTFTYSHFAVPQAKGNNVVITSYMTNRGFYADKQSTFAPSFLLNIKGKKTSVVKDSILEQGQLTVNK |  | 10.5 (2.2) mM | 95.4 (2.2) s^-1 |  |
| SacB (Bacillus subtilis levansucrase, LS) (Bacillus subtilis subsp. subtilis str. 168; D117A) (protein, sacB gene of strain 168 in pET22b, expressed in E. coli BL21(DE3); residues 32-471 modelled in crystal) KETNQKPYKETYGISHITRHDMLQIPEQQKNEKYQVPEFDSSTIKNISSAKGLDVWDSWPLQNADGTVANYHGYHIVFALAGDPKNAADTSIYMFYQKVGETSIDSWKNAGRVFKDSDKFDANDSILKDQTQEWSGSATFTSDGKIRLFYTDFSGKHYGKQTLTTAQVNVSASDSSLNINGVEDYKSIFDGDGKTYQNVQQFIDEGNYSSGDNHTLRDPHYVEDKGHKYLVFEANTGTEDGYQGEESLFNKAYYGKSTSFFRQESQKLLQSDKKRTAELANGALGMIELNDDYTLKKVMKPLIASNTVTDEIERANVFKMNGKWYLFTDSRGSKMTIDGITSNDIYMLGYVSNSLTGPYKPLNKTGLVLKMDLDPNDVTFTYSHFAVPQAKGNNVVITSYMTNRGFYADKQSTFAPSFLLNIKGKKTSVVKDSILEQGQLTVNK |  | 13.2 (1.7) mM | 171.2 (5.7) s^-1 |  |
| SacB (Bacillus subtilis levansucrase, LS) (Bacillus subtilis subsp. subtilis str. 168; F182Y) (protein, sacB gene of strain 168 in pET22b, expressed in E. coli BL21(DE3); residues 32-471 modelled in crystal) KETNQKPYKETYGISHITRHDMLQIPEQQKNEKYQVPEFDSSTIKNISSAKGLDVWDSWPLQNADGTVANYHGYHIVFALAGDPKNADDTSIYMFYQKVGETSIDSWKNAGRVFKDSDKFDANDSILKDQTQEWSGSATFTSDGKIRLFYTDYSGKHYGKQTLTTAQVNVSASDSSLNINGVEDYKSIFDGDGKTYQNVQQFIDEGNYSSGDNHTLRDPHYVEDKGHKYLVFEANTGTEDGYQGEESLFNKAYYGKSTSFFRQESQKLLQSDKKRTAELANGALGMIELNDDYTLKKVMKPLIASNTVTDEIERANVFKMNGKWYLFTDSRGSKMTIDGITSNDIYMLGYVSNSLTGPYKPLNKTGLVLKMDLDPNDVTFTYSHFAVPQAKGNNVVITSYMTNRGFYADKQSTFAPSFLLNIKGKKTSVVKDSILEQGQLTVNK |  | 10.3 (0.7) mM | 162.2 (2.6) s^-1 |  |
| SacB (Bacillus subtilis levansucrase, LS) (Bacillus subtilis subsp. subtilis str. 168; F182W) (protein, sacB gene of strain 168 in pET22b, expressed in E. coli BL21(DE3); residues 32-471 modelled in crystal) KETNQKPYKETYGISHITRHDMLQIPEQQKNEKYQVPEFDSSTIKNISSAKGLDVWDSWPLQNADGTVANYHGYHIVFALAGDPKNADDTSIYMFYQKVGETSIDSWKNAGRVFKDSDKFDANDSILKDQTQEWSGSATFTSDGKIRLFYTDWSGKHYGKQTLTTAQVNVSASDSSLNINGVEDYKSIFDGDGKTYQNVQQFIDEGNYSSGDNHTLRDPHYVEDKGHKYLVFEANTGTEDGYQGEESLFNKAYYGKSTSFFRQESQKLLQSDKKRTAELANGALGMIELNDDYTLKKVMKPLIASNTVTDEIERANVFKMNGKWYLFTDSRGSKMTIDGITSNDIYMLGYVSNSLTGPYKPLNKTGLVLKMDLDPNDVTFTYSHFAVPQAKGNNVVITSYMTNRGFYADKQSTFAPSFLLNIKGKKTSVVKDSILEQGQLTVNK |  | 10.5 (1.3) mM | 129.4 (3.6) s^-1 |  |
| SacB (Bacillus subtilis levansucrase, LS) (Bacillus subtilis subsp. subtilis str. 168; Y187A) (protein, sacB gene of strain 168 in pET22b, expressed in E. coli BL21(DE3); residues 32-471 modelled in crystal) KETNQKPYKETYGISHITRHDMLQIPEQQKNEKYQVPEFDSSTIKNISSAKGLDVWDSWPLQNADGTVANYHGYHIVFALAGDPKNADDTSIYMFYQKVGETSIDSWKNAGRVFKDSDKFDANDSILKDQTQEWSGSATFTSDGKIRLFYTDFSGKHAGKQTLTTAQVNVSASDSSLNINGVEDYKSIFDGDGKTYQNVQQFIDEGNYSSGDNHTLRDPHYVEDKGHKYLVFEANTGTEDGYQGEESLFNKAYYGKSTSFFRQESQKLLQSDKKRTAELANGALGMIELNDDYTLKKVMKPLIASNTVTDEIERANVFKMNGKWYLFTDSRGSKMTIDGITSNDIYMLGYVSNSLTGPYKPLNKTGLVLKMDLDPNDVTFTYSHFAVPQAKGNNVVITSYMTNRGFYADKQSTFAPSFLLNIKGKKTSVVKDSILEQGQLTVNK |  | 8.4 (0.9) mM | 199.2 (4.4) s^-1 |  |

Reference: publication PMC7948499, “The molecular basis of the nonprocessive elongation mechanism in levansucrases” (The Journal of Biological Chemistry, 2020)
